The source of these data is publication PMC12431652.

The target in this assay is Tripartite Motif Protein 28 (TRIM28), endogenous in HEK293T cells (UniProt Q13263). Nature of the assay: co-immunoprecipitation (anti-FLAG IP, western blot band quantification). The following applies: for percent of parent (rel. (PIV2-V = 100)): HEK293T cells transfected for 24 hours, n = 3, parent: 100, read off a plot. A general note: In western blotting, separated proteins are transferred to a membrane and probed.
Sequence of UniProt Q13263 (Q13263 whole entry): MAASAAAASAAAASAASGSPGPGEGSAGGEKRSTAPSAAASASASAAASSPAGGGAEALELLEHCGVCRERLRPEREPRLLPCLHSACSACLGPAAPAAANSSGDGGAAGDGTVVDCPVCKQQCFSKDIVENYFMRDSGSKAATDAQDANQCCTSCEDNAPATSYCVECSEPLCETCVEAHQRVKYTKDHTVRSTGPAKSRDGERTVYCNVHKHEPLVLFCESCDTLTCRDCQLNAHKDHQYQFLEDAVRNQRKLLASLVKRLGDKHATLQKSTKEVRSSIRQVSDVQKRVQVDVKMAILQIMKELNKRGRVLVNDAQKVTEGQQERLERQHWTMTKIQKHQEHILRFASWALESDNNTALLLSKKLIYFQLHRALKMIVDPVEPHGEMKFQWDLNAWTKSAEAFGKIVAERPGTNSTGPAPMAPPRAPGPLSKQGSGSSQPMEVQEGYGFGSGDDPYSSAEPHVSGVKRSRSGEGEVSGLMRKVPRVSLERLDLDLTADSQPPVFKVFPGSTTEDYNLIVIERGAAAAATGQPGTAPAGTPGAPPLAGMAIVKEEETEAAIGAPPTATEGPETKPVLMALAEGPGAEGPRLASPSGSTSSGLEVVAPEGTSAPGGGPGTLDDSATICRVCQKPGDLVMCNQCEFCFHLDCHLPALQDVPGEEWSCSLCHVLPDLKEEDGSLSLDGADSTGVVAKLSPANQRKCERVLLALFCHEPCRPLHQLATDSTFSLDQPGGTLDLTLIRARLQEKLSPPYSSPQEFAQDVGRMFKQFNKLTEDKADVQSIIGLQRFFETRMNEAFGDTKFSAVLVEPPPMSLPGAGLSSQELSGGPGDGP

With “FLAG-tagged full-length PIV2-V (pCMV7.1_3xFlag) (from UniProt P19847) A181G”, the percent of parent (rel. (PIV2-V = 100)) stood at 110.

Consider “FLAG-tagged full-length PIV2-V (pCMV7.1_3xFlag) (from UniProt P19847) F190T”, for which the percent of parent (rel. (PIV2-V = 100)) was 130.

For the substance “FLAG-tagged full-length PIV2-V (pCMV7.1_3xFlag) (from UniProt P19847) Q186E”, the percent of parent (rel. (PIV2-V = 100)) worked out at 130.

Regarding “FLAG-tagged full-length PIV2-V (pCMV7.1_3xFlag) (from UniProt P19847) W178Y”, the percent of parent (rel. (PIV2-V = 100)) was 50.

On to “FLAG-tagged full-length PIV5-V (pCMV7.1_3xFlag) (from UniProt P11207) Y175W”, for which the percent of parent (rel. (PIV5-V = 100)) (n = 3, parent: 100, read off a plot) was 310.
